Reference: article PMC12350170, “Structural basis for the synergistic assembly of the snRNA export complex” (Nature Structural & Molecular Biology, 2025)

Legend:
Settings in all cases: both partners purified
[1] = biological target: Human Ran Q69L bound to GTP (human, UniProt P62826 1-216, Q69L); assay: SEC; Superdex 200 Increase 3.2/300; 180 pmol CBC and 360 pmol PHAX construct, CRM1 and RanGTP mixed with 100 μM capped 14-nt RNA (or U1 snRNA), 1 mM Mg2+, 1 mM KCl, 100 μM GTP, 30 min on ice; fractions on SDS-PAGE
[2] = biological target: T1, Human nuclear cap-binding complex (CBC): CBP80ΔNLS with CBP20 (human, UniProt Q09161 20-790; P52298 1-156); assay: as above
T1 construct: CBP80 (NCBP1), human, CBP80ΔNLS lacking the N-terminal 19 residues; CBP20 (NCBP2), human; also called CBP80–CBP20; source: CBP80ΔNLS in High Five insect cells, CBP20 in E. coli BL21Star (DE3); pellets lysed together, purified (Ni2+-chelating Sepharose, TEV, heparin, Superdex 200)
T1 sequence 1: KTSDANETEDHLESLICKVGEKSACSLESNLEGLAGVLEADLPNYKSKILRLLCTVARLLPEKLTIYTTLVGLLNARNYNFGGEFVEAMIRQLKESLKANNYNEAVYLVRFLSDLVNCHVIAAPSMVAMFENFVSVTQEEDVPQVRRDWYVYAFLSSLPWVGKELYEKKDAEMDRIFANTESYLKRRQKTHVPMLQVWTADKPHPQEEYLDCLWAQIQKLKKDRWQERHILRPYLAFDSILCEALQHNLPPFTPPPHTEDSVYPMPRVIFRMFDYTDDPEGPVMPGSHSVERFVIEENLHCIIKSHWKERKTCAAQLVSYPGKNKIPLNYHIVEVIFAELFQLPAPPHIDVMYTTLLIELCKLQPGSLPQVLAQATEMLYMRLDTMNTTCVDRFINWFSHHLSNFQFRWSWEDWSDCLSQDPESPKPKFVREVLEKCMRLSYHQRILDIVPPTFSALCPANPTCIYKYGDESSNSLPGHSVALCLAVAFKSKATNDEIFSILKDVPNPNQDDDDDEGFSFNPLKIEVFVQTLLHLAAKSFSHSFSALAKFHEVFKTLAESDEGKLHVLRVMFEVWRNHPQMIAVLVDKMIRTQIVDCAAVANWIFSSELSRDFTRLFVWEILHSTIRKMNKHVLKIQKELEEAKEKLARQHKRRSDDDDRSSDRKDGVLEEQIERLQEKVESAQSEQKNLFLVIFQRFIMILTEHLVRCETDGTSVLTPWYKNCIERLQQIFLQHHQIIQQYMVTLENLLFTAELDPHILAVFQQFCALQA
T1 sequence 2: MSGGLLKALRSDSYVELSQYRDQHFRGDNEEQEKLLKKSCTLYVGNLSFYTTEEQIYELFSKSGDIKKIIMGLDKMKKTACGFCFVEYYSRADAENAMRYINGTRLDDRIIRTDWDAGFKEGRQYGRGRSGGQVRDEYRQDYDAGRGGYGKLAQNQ

[3] = biological target: T2, Human CRM1 (human, UniProt O14980 1-1071); assay: as above
T2 construct: CRM1 (XPO1), human; also called XPO1; exportin CRM1; source: E. coli Tg1, pQE60, purified (Ni2+-chelating Sepharose, heparin, Superdex 200)
T2 sequence (O14980 whole entry): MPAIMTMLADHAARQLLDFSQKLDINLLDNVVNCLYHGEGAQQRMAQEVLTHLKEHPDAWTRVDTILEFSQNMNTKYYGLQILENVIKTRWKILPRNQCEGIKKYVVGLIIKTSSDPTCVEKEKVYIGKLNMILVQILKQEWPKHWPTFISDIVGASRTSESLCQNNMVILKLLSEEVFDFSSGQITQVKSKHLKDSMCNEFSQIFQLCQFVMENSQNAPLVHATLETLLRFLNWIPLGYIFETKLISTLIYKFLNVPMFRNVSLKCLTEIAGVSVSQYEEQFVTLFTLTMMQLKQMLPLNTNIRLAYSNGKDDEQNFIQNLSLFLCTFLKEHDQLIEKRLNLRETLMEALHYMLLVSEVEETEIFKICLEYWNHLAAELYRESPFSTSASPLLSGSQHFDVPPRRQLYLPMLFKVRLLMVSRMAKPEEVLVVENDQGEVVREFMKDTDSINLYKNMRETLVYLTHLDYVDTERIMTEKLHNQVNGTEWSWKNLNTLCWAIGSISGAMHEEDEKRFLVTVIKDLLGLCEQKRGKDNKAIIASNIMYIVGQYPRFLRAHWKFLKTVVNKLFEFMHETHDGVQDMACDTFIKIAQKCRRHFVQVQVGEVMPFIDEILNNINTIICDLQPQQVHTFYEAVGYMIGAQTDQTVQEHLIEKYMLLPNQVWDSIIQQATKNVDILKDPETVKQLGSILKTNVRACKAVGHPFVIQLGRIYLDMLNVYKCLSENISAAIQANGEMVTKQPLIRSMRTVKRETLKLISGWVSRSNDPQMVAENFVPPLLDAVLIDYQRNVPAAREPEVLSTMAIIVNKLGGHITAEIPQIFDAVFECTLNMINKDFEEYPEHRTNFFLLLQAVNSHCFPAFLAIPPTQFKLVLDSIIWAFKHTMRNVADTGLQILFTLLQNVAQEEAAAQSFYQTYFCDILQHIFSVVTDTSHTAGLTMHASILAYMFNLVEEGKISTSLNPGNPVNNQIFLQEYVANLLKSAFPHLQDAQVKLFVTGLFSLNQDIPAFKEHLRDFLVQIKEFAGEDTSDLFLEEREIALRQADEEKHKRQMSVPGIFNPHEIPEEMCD

[4] = biological target: T1, Human nuclear cap-binding complex …; assay: ITC; 25 °C, PEAQ-ITC; 0.2–0.25 mM PHAX 103–196 or mutant injected into 20 µM CBC in the presence or absence of 0.1 mM m7GTP or m7GpppG; 20 mM Tris pH 8.0, 100 mM NaCl, 2% glycerol; one-site model
[5] = biological target: T3, Human full-length PHAX, phosphorylated in vitro by CK2 (human, UniProt Q9H814 1-394, phosphorylated by CK2 in vitro: between 3 and 5 phosphorylated sites, up to four within ST2 (residues 64–76); the positions are not given); assay: cryo-EM structure; snRNA export complex of CBC, CK2-phosphorylated PHAX, CRM1, Ran(Q69L)GTP and 14-nt capped RNA, purified on Superdex 200 Increase; Titan Krios 300 kV
T3 construct: PHAX (Phosphorylated Adaptor for RNA Export), human, 394 amino acid residues; also called P-PHAX; phosphorylated PHAX; source: E. coli BL21Star (DE3), pETM11, purified (Ni2+-chelating Sepharose, heparin, Superdex 200); then treated with CK2 and ATP
T3 sequence (Q9H814 whole entry, the tested form may be a part): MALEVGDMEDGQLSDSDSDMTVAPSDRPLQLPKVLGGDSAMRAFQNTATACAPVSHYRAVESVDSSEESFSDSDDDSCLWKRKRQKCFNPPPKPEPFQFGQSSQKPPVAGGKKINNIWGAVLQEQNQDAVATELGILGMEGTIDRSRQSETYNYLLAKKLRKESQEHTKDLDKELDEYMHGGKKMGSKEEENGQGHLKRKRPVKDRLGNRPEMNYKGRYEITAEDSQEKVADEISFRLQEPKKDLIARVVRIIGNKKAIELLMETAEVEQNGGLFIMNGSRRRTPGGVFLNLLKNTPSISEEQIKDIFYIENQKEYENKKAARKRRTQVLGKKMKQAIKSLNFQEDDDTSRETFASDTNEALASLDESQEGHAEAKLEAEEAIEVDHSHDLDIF

[6] = biological target: T4, CBP80ΔNLS (subunit of the human CBC) (human, UniProt Q09161 20-790); assay: as above
T4 construct: CBP80 (NCBP1), human, lacking the N-terminal 19 residues; Stood in the assay as part of CBC; made a molecule of its own for the contacts seen in the structure; also called NCBP1; source: High Five insect cells; purified together with CBP20 as CBC
T4 sequence (looked up): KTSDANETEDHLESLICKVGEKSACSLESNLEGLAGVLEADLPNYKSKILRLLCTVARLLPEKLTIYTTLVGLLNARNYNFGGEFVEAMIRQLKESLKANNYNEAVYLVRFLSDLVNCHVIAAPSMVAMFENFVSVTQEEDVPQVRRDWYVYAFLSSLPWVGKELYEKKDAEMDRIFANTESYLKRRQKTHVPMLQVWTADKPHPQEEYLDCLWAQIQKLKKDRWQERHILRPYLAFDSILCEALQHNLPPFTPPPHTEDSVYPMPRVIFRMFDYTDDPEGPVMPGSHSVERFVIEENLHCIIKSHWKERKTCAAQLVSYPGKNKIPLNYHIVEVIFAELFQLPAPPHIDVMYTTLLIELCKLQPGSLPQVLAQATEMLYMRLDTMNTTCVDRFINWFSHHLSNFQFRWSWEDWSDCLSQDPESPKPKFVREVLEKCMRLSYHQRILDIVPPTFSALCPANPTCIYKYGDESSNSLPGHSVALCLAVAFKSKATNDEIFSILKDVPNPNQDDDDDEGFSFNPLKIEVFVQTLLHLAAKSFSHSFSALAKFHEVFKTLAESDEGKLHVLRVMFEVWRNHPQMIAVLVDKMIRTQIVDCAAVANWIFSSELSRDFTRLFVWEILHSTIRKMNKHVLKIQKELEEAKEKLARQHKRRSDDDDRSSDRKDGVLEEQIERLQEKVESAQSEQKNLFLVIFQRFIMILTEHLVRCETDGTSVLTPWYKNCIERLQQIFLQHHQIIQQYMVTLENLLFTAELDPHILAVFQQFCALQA

B1: MBP-PHAX103–196 (wild type) (domain or fragment, human, UniProt Q9H814 103-196, looked up)
chain: SQKPPVAGGKKINNIWGAVLQEQNQDAVATELGILGMEGTIDRSRQSETYNYLLAKKLRKESQEHTKDLDKELDEYMHGGKKMGSKEEENGQGH
notes: source: E. coli BL21Star (DE3), pETM41, purified (Ni2+-chelating Sepharose, Superdex 200); not shown: MBP, N-terminal, kept
binding result [1]: binds
binding result [2]: binds
binding result [3]: binds

B2: MBP-PHAX103–196 R147E, Y152E, Y154E (domain or fragment, human, UniProt Q9H814 103-196, looked up)
chain: SQKPPVAGGKKINNIWGAVLQEQNQDAVATELGILGMEGTIDRSEQSETENELLAKKLRKESQEHTKDLDKELDEYMHGGKKMGSKEEENGQGH
notes: as for B1
binding result [4]: binds

B3: MBP-PHAX103–196 Y154A (domain or fragment, human, UniProt Q9H814 103-196, looked up)
chain: SQKPPVAGGKKINNIWGAVLQEQNQDAVATELGILGMEGTIDRSRQSETYNALLAKKLRKESQEHTKDLDKELDEYMHGGKKMGSKEEENGQGH
notes: as for B1
binding result [2]: binds

B4: CBP20 (subunit of the human CBC) (natural protein)
chain: MSGGLLKALRSDSYVELSQYRDQHFRGDNEEQEKLLKKSCTLYVGNLSFYTTEEQIYELFSKSGDIKKIIMGLDKMKKTACGFCFVEYYSRADAENAMRYINGTRLDDRIIRTDWDAGFKEGRQYGRGRSGGQVRDEYRQDYDAGRGGYGKLAQNQ
notes: CBP20 (NCBP2), human; Stood in the assay as part of CBC; made a molecule of its own for the contacts seen in the structure; also called NCBP2; source: E. coli BL21Star (DE3), pETM30; purified together with CBP80ΔNLS as CBC
binding result [5]: binds
binding result [6]: binds
